What was measured:
[1] = target: RAMP1-CLR heterodimer expressed in S. cerevisiae (human) (UniProt Q16602)
[2] = target: RAMP2-CLR heterodimer expressed in S. cerevisiae (human) (UniProt Q16602)
[3] = target: RAMP3-CLR heterodimer expressed in S. cerevisiae (human) (UniProt Q16602)
[4] = target: RAMP1-CLR complex expressed in HEK-293 cells (human) (UniProt Q16602)
[5] = target: RAMP2-CLR complex expressed in HEK-293 cells (human) (UniProt Q16602)
[6] = target: RAMP3-CLR complex expressed in HEK-293 cells (human) (UniProt Q16602)
Chain of RAMP3-CLR complex expressed in HEK-293 cells (human) (Q16602 23-461, chain 1 of 2): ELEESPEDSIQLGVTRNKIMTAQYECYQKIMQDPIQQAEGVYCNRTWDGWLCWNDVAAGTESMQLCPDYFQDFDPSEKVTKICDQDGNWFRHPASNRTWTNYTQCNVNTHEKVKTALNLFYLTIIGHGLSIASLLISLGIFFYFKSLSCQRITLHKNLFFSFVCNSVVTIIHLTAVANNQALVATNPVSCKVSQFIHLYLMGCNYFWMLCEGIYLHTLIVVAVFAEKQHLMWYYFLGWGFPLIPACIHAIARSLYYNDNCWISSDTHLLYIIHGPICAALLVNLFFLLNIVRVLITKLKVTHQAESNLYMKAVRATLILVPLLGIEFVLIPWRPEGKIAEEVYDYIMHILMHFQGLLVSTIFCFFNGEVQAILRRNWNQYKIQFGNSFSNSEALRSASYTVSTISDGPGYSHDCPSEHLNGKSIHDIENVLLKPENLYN
Chain of RAMP3-CLR complex expressed in HEK-293 cells (human) (O60896 24-148, chain 2 of 2, further chain): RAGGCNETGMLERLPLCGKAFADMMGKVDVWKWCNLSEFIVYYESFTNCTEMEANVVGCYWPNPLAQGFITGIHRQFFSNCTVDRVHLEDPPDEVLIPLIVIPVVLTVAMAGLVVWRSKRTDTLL

[7] = target: RAMP1-CLR complex expressed in HEK-293 cells (human) (UniProt Q16602); remark: listed apart in the source
[8] = target: RAMP2-CLR complex expressed in HEK-293 cells (human) (UniProt Q16602); remark: listed apart in the source
[9] = target: RAMP3-CLR complex expressed in HEK-293 cells (human) (UniProt Q16602); remark: listed apart in the source
[10] = target: RAMP1-CLR complex expressed in HEK-293S cells (human) (UniProt Q16602)
Chain of RAMP1-CLR complex expressed in HEK-293S cells (human) (Q16602 23-461, chain 1 of 2): as the sequence (Q16602 23-461, chain 1 of 2) above
Chain of RAMP1-CLR complex expressed in HEK-293S cells (human) (O60894 27-148, chain 2 of 2, further chain): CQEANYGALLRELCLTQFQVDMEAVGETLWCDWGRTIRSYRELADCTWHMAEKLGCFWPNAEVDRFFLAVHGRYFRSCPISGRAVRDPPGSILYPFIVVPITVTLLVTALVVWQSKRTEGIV

[11] = target: RAMP2-CLR complex expressed in HEK-293S cells (human) (UniProt Q16602)
Chain of RAMP2-CLR complex expressed in HEK-293S cells (human) (Q16602 23-461, chain 1 of 2): as the sequence (Q16602 23-461, chain 1 of 2) above
Chain of RAMP2-CLR complex expressed in HEK-293S cells (human) (O60895 43-175, chain 2 of 2, further chain): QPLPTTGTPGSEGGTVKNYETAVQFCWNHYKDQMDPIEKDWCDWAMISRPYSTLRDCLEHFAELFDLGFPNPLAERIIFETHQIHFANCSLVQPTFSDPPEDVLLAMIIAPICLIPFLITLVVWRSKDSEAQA

[12] = target: RAMP3-CLR complex expressed in HEK-293S cells (human) (UniProt Q16602)
Chain of RAMP3-CLR complex expressed in HEK-293S cells (human) (Q16602 23-461, chain 1 of 2): as the sequence (Q16602 23-461, chain 1 of 2) above
Chain of RAMP3-CLR complex expressed in HEK-293S cells (human) (O60896 24-148, chain 2 of 2, further chain): as the sequence (O60896 24-148, chain 2 of 2, further chain) above

[13] = target: RAMP1-CLR complex expressed in HEK-293 cells (human) (UniProt Q16602); remark: listed apart in the source
[14] = target: RAMP1-CLR complex expressed in HEK-293S cells (human) (UniProt Q16602); remark: listed apart in the source
[15] = target: RAMP2-CLR complex expressed in HEK-293 cells (human) (UniProt Q16602); remark: listed apart in the source
[16] = target: RAMP2-CLR complex expressed in HEK-293S cells (human) (UniProt Q16602); remark: listed apart in the source
[17] = target: RAMP3-CLR complex expressed in HEK-293 cells (human) (UniProt Q16602); remark: listed apart in the source
[18] = target: RAMP3-CLR complex expressed in HEK-293S cells (human) (UniProt Q16602); remark: listed apart in the source

Chain of RAMP3-CLR heterodimer expressed in S. cerevisiae (human) (Q16602 23-461, chain 1 of 2): as the sequence (Q16602 23-461, chain 1 of 2) above
Chain of RAMP3-CLR heterodimer expressed in S. cerevisiae (human) (O60896 24-148, chain 2 of 2, further chain): as the sequence (O60896 24-148, chain 2 of 2, further chain) above
Chain of RAMP1-CLR complex expressed in HEK-293 cells (human) (Q16602 23-461, chain 1 of 2): as the sequence (Q16602 23-461, chain 1 of 2) above
Chain of RAMP1-CLR complex expressed in HEK-293 cells (human) (O60894 27-148, chain 2 of 2, further chain): as the sequence (O60894 27-148, chain 2 of 2, further chain) above
Chain of RAMP2-CLR complex expressed in HEK-293 cells (human) (Q16602 23-461, chain 1 of 2): as the sequence (Q16602 23-461, chain 1 of 2) above
Chain of RAMP2-CLR complex expressed in HEK-293 cells (human) (O60895 43-175, chain 2 of 2, further chain): as the sequence (O60895 43-175, chain 2 of 2, further chain) above
Chain of RAMP2-CLR heterodimer expressed in S. cerevisiae (human) (Q16602 23-461, chain 1 of 2): as the sequence (Q16602 23-461, chain 1 of 2) above
Chain of RAMP2-CLR heterodimer expressed in S. cerevisiae (human) (O60895 43-175, chain 2 of 2, further chain): as the sequence (O60895 43-175, chain 2 of 2, further chain) above
Chain of RAMP1-CLR heterodimer expressed in S. cerevisiae (human) (Q16602 23-461, chain 1 of 2): as the sequence (Q16602 23-461, chain 1 of 2) above
Chain of RAMP1-CLR heterodimer expressed in S. cerevisiae (human) (O60894 27-148, chain 2 of 2, further chain): as the sequence (O60894 27-148, chain 2 of 2, further chain) above

## hAM2 (1–47) (peptide)
[1]
  pEC50, yeast growth reporter, GPA1/Gαi chimera strain: 8.57 -log10
  pEC50, yeast growth reporter, GPA1/Gαq chimera strain: 7.99 -log10
  pEC50, yeast growth reporter, GPA1/Gαs chimera strain: 7.22 -log10
  pKa (operational model of agonism), yeast growth reporter, GPA1/Gαi chimera strain: 8.24 -log10
  pKa (operational model of agonism), yeast growth reporter, GPA1/Gαq chimera strain: 7.91 -log10
  pKa (operational model of agonism), yeast growth reporter, GPA1/Gαs chimera strain: 7.31 -log10
[2]
  pEC50, yeast growth reporter, GPA1/Gαi chimera strain: 8.42 -log10
  pEC50, yeast growth reporter, GPA1/Gαq chimera strain: 9.22 -log10
  pEC50, yeast growth reporter, GPA1/Gαs chimera strain: 8.05 -log10
  pKa (operational model of agonism), yeast growth reporter, GPA1/Gαi chimera strain: 8.3 -log10
  pKa (operational model of agonism), yeast growth reporter, GPA1/Gαq chimera strain: 9.16 -log10
  pKa (operational model of agonism), yeast growth reporter, GPA1/Gαs chimera strain: 8.1 -log10
[3]
  pEC50, yeast growth reporter, GPA1/Gαi chimera strain: 8.49 -log10
  pEC50, yeast growth reporter, GPA1/Gαq chimera strain: 6.76 -log10
  pEC50, yeast growth reporter, GPA1/Gαs chimera strain: 8.85 -log10
  pKa (operational model of agonism), yeast growth reporter, GPA1/Gαi chimera strain: 8.3 -log10
  pKa (operational model of agonism), yeast growth reporter, GPA1/Gαq chimera strain: 6.6 -log10
  pKa (operational model of agonism), yeast growth reporter, GPA1/Gαs chimera strain: 8.61 -log10
[4]
  pEC50, cAMP accumulation in HEK-293 cells: 7.93 -log10
  pKa (operational model of agonism), cAMP accumulation in HEK-293 cells: 7.76 -log10
[5]
  pEC50, cAMP accumulation in HEK-293 cells: 7.48 -log10
  pKa (operational model of agonism), cAMP accumulation in HEK-293 cells: 7.16 -log10
[6]
  pEC50, cAMP accumulation in HEK-293 cells: 9.14 -log10
  pKa (operational model of agonism), cAMP accumulation in HEK-293 cells: 9 -log10
[7]
  pEC50, cAMP accumulation in HEK-293 cells, with PTX pretreatment: 9.15 -log10
  pEC50, cAMP accumulation in HEK-293 cells, without PTX: 7.93 -log10
  pKa (operational model of agonism), cAMP accumulation in HEK-293 cells, with PTX pretreatment: 8.56 -log10
  pKa (operational model of agonism), cAMP accumulation in HEK-293 cells, without PTX: 7.7 -log10
[8]
  pKa (operational model of agonism), cAMP accumulation in HEK-293 cells, with PTX pretreatment: 8.84 -log10
[9]
  pEC50, cAMP accumulation in HEK-293 cells, with PTX pretreatment: 8.74 -log10
  pEC50, cAMP accumulation in HEK-293 cells, without PTX: 9.1 -log10
  pKa (operational model of agonism), cAMP accumulation in HEK-293 cells, with PTX pretreatment: 8.43 -log10
  pKa (operational model of agonism), cAMP accumulation in HEK-293 cells, without PTX: 9.08 -log10
[10]
  pEC50, cAMP accumulation in HEK-293S cells, with PTX pretreatment: 8.78 -log10
  pEC50, cAMP accumulation in HEK-293S cells, without PTX: 8.74 -log10
[11]
  pEC50, cAMP accumulation in HEK-293S cells, without PTX: 8.57 -log10
[12]
  pEC50, cAMP accumulation in HEK-293S cells, with PTX pretreatment: 7.79 -log10
  pEC50, cAMP accumulation in HEK-293S cells, without PTX: 8.01 -log10
[13]
  pEC50, (Ca^2+)i mobilization in HEK-293 cells: 6.76 -log10
  pKa (operational model of agonism), (Ca^2+)i mobilization in HEK-293 cells: 6.64 -log10
[14]
  pEC50, (Ca^2+)i mobilization in HEK-293S cells: 6.94 -log10
  pKa (operational model of agonism), (Ca^2+)i mobilization in HEK-293S cells: 6.76 -log10
[15]
  pEC50, (Ca^2+)i mobilization in HEK-293 cells: 7.41 -log10
  pKa (operational model of agonism), (Ca^2+)i mobilization in HEK-293 cells: 7.15 -log10
[16]
  pEC50, (Ca^2+)i mobilization in HEK-293S cells: 7.42 -log10
  pKa (operational model of agonism), (Ca^2+)i mobilization in HEK-293S cells: 7.33 -log10
[17]
  pEC50, (Ca^2+)i mobilization in HEK-293 cells: 8.05 -log10
  pKa (operational model of agonism), (Ca^2+)i mobilization in HEK-293 cells: 7.95 -log10
[18]
  pEC50, (Ca^2+)i mobilization in HEK-293S cells: 7.44 -log10
  pKa (operational model of agonism), (Ca^2+)i mobilization in HEK-293S cells: 7.35 -log10

## hAM (peptide)
[1]
  pEC50, yeast growth reporter, GPA1/Gαi chimera strain: 8.38 -log10
  pEC50, yeast growth reporter, GPA1/Gαq chimera strain: 7.26 -log10
  pEC50, yeast growth reporter, GPA1/Gαs chimera strain: 8.8 -log10
  pKa (operational model of agonism), yeast growth reporter, GPA1/Gαi chimera strain: 8.2 -log10
  pKa (operational model of agonism), yeast growth reporter, GPA1/Gαq chimera strain: 7.19 -log10
  pKa (operational model of agonism), yeast growth reporter, GPA1/Gαs chimera strain: 8.81 -log10
[2]
  pEC50, yeast growth reporter, GPA1/Gαi chimera strain: 7.91 -log10
  pEC50, yeast growth reporter, GPA1/Gαq chimera strain: 7.93 -log10
  pEC50, yeast growth reporter, GPA1/Gαs chimera strain: 8.82 -log10
  pKa (operational model of agonism), yeast growth reporter, GPA1/Gαi chimera strain: 7.75 -log10
  pKa (operational model of agonism), yeast growth reporter, GPA1/Gαq chimera strain: 7.78 -log10
  pKa (operational model of agonism), yeast growth reporter, GPA1/Gαs chimera strain: 8.77 -log10
[3]
  pEC50, yeast growth reporter, GPA1/Gαi chimera strain: 7.89 -log10
  pEC50, yeast growth reporter, GPA1/Gαq chimera strain: 7.83 -log10
  pEC50, yeast growth reporter, GPA1/Gαs chimera strain: 8.15 -log10
  pKa (operational model of agonism), yeast growth reporter, GPA1/Gαi chimera strain: 8 -log10
  pKa (operational model of agonism), yeast growth reporter, GPA1/Gαq chimera strain: 7.71 -log10
  pKa (operational model of agonism), yeast growth reporter, GPA1/Gαs chimera strain: 8.1 -log10
[4]
  pEC50, cAMP accumulation in HEK-293 cells: 7.92 -log10
  pKa (operational model of agonism), cAMP accumulation in HEK-293 cells: 7.64 -log10
[5]
  pEC50, cAMP accumulation in HEK-293 cells: 10.3 -log10
  pKa (operational model of agonism), cAMP accumulation in HEK-293 cells: 9.95 -log10
[6]
  pEC50, cAMP accumulation in HEK-293 cells: 8.86 -log10
  pKa (operational model of agonism), cAMP accumulation in HEK-293 cells: 8.5 -log10
[7]
  pEC50, cAMP accumulation in HEK-293 cells, with PTX pretreatment: 8.14 -log10
  pEC50, cAMP accumulation in HEK-293 cells, without PTX: 7.93 -log10
  pKa (operational model of agonism), cAMP accumulation in HEK-293 cells, with PTX pretreatment: 7.66 -log10
  pKa (operational model of agonism), cAMP accumulation in HEK-293 cells, without PTX: 7.67 -log10
[8]
  pEC50, cAMP accumulation in HEK-293 cells, with PTX pretreatment: 10.2 -log10
  pEC50, cAMP accumulation in HEK-293 cells, without PTX: 10.3 -log10
  pKa (operational model of agonism), cAMP accumulation in HEK-293 cells, with PTX pretreatment: 9.83 -log10
  pKa (operational model of agonism), cAMP accumulation in HEK-293 cells, without PTX: 10 -log10
[9]
  pEC50, cAMP accumulation in HEK-293 cells, with PTX pretreatment: 9.1 -log10
  pEC50, cAMP accumulation in HEK-293 cells, without PTX: 8.98 -log10
  pKa (operational model of agonism), cAMP accumulation in HEK-293 cells, with PTX pretreatment: 8.94 -log10
  pKa (operational model of agonism), cAMP accumulation in HEK-293 cells, without PTX: 8.83 -log10
[10]
  pEC50, cAMP accumulation in HEK-293S cells, with PTX pretreatment: 8.03 -log10
  pEC50, cAMP accumulation in HEK-293S cells, without PTX: 8.13 -log10
[11]
  pEC50, cAMP accumulation in HEK-293S cells, with PTX pretreatment: 9.38 -log10
  pEC50, cAMP accumulation in HEK-293S cells, without PTX: 9.39 -log10
[12]
  pEC50, cAMP accumulation in HEK-293S cells, with PTX pretreatment: 9.49 -log10
  pEC50, cAMP accumulation in HEK-293S cells, without PTX: 9.63 -log10
[13]
  pEC50, (Ca^2+)i mobilization in HEK-293 cells: 7.9 -log10
  pKa (operational model of agonism), (Ca^2+)i mobilization in HEK-293 cells: 7.69 -log10
[14]
  pEC50, (Ca^2+)i mobilization in HEK-293S cells: 7.63 -log10
  pKa (operational model of agonism), (Ca^2+)i mobilization in HEK-293S cells: 7.42 -log10
[15]
  pEC50, (Ca^2+)i mobilization in HEK-293 cells: 7.86 -log10
  pKa (operational model of agonism), (Ca^2+)i mobilization in HEK-293 cells: 7.45 -log10
[16]
  pEC50, (Ca^2+)i mobilization in HEK-293S cells: 7.68 -log10
  pKa (operational model of agonism), (Ca^2+)i mobilization in HEK-293S cells: 7.39 -log10
[17]
  pEC50, (Ca^2+)i mobilization in HEK-293 cells: 8.12 -log10
  pKa (operational model of agonism), (Ca^2+)i mobilization in HEK-293 cells: 7.76 -log10
[18]
  pEC50, (Ca^2+)i mobilization in HEK-293S cells: 8.02 -log10
  pKa (operational model of agonism), (Ca^2+)i mobilization in HEK-293S cells: 8.56 -log10
